This is an account of results in US11739318B1, “Modified biosensors and biocatalysts and methods of use” (priority 2017, dated 2023).

For one series, the system named is pNP sensor. Description: Raw whole cell fluorescence with pNP sensor and sfGFP-PON1 under positive feedback regulation, flow cytometer. The settings on record: mean of duplicate cultures ± SD. Format: cell-based, E. coli. The text has this:
FIGS. 16A-16D show ‘Catalyze’ and ‘sense’ system for hydrolysis reactions. […] UI: background fluorescence from cells without any pNP source to induce the TF; […]; pNP: TF induced by exogenously supplied pNP as a control/reference. […] Relative activity levels are distinguishable by eye.
The technique described here (referred to in this example as “smart microbial cells” or SMC; e.g., FIGS. 1A and 1B) allows for catalysis and sensing in the same microbial cell. For a practical library application, we simplified and improved the signal to noise ratio of the biosensor. This was achieved by gene fusing the PON1 to the GFP so that the TF is also regulating the catalytic enzyme expression as well (scheme shown in FIG. 1B). This fusion is expected to have three distinct effects. First, it provides positive feedback, such that more the activity, the more PON1 is expressed, and in turn further ‘feeds’ the activity. […] Second, feedback will amplify the already present correlation between activity and GFP expression. Third, for suitably chosen GFP, the fluorescence signal conveniently reports the amount of fused PON1 present, allowing normalization for specific activity.
. Based on the catalytic efficiency and the cytoplasmic concentration of the hydrolase, PXN hydrolysis results in a correlated pNP production inside the microbial cell that ultimately determines activation of the pNP sensor and accumulation of sfGFP in the cells. […] When pNP was used as an inducer, such that the expression of sfGFP-PON1 expression is independent of the catalytic efficiency of PON1, modest differences in cell fluorescence were still captured across the PON1 variants indicating V346A mutation could be detrimental to PON1 expression and stability (FIG. 16C, Table 6).
(In general: In flow cytometry, cells or beads pass a laser one at a time.)

The subject of another series is BKA. Description: BKA sensing with PcaR variants in high BKA producing strain NN7. In kind it is cell-based, P. putida. The settings on record: strain NN7, LB background BKA production. The source says:
Rosetta homology modeling, using a known structure of a transcription factor with a homologous sequence (PDB code 2G7U) was used to get a 3D estimate of the PcaR inducer binding domain. Based on the predicted structure, several amino acids in the pocket were identified to be suitable for mutagenesis. […] Positions N140, L161, L166, L172, M179, L234, L238, S240, N257 and S259 were mutated for diversification to achieve N/S/T/I at positions 140 and 257, L/M/V at positions 161, 166, 172, 179, 234 and 238, S/T/A at position 240 and 259. This produced a library of diversity>100,000. The library was transformed in high BKA producing strain where native pcaR gene was deleted (strain NN7) and screened for increase fluorescence response with increasing dose of precursors while in the LB mediated BKA production background.

Series [1] in a line: UbiC enzyme kinetic parameters (pyruvate release coupled to lactate dehydrogenase, NADH oxidation at 340 nm). The conditions noted are these: sfGFP fused UbiC variants with C-terminal 6xHis tag, 30° C., pH 7.5; for Km: chorismate. Format: biochemical. As for the experimental part: Enzyme expression and purification: 5 mL cultures were grown from the glycerol stocks of P. putida CJ182 containing plasmids encoding 6×His-tag UbiC variants. At an OD600 of ˜0.6, the cultures were induced with 1 mM 4HB and further grown for 16 h at 30° C. and 225 rpm shaking. The cultures were centrifuged at 3500×g for 10 min and the cell pellets were lysed with 500 μL BugBuster (Novagen) under slow shaking for 30 min. The cell lysates were centrifuged at 15,000×g for 15 min at 4° C. and the sfGFP-UbiC fusion proteins were purified by Affinity Chromatography using Talon beads (Clontech). For purification, the clarified supernatant for each UbiC variant was mixed with 200 μL Talon beads in an equilibration buffer (50 mM Tris-HCl, 300 mM NaCl, pH 7.5) for 30 min. The mixture was centrifuged at 2000×g, the supernatant was discarded and the pellet consisting of Talon beads with bound protein was washed two times with equilibration buffer containing 50 mM imidazole. Finally, the beads were mixed with elution buffer (50 mM Tris-HCl, 300 mM NaCl, 300 mM Imidazole, pH 7.5) and filtered through a spin column with 0.2 µm filter. The enzyme concentration and purity of the protein in the eluate were determined by absorbance at 280 nm using a Nanodrop (Thermo Scientific) and SDS polyacrylamide gel electrophoresis, respectively.
Determining enzyme kinetic parameters: The production of 4HB from chorismate catalyzed by UbiC is accompanied with release of a pyruvate molecule. […] The reactions were conducted in 96-well plate at 30° C. in the Synergy H4 Hybrid Microplate Reader (Biotek). The kinetic parameters and product inhibition constants were determined by measuring the initial reaction rates with respect to varying substrate and product concentrations and calculated using GraphPad Prism software.

The next series deals with P. putida CJ200. Description: Shake flask muconate production. Format: cell-based. The conditions noted are these: plasmid expressed, over CJ200 with no heterologous UbiC expression. The protocol: Shake flask experiments for muconate production: P. putida CJ200 transformed with pPobR_ubiC plasmids or with genomically integrated ubiC-C22 under PobR regulation (NP015) were grown in 125 mL baffled shake flasks containing 25 mL of 1×M9 salts (6.78 g/L Na2HPO4, 3 g/L KH2PO4, 0.5 g/L NaCl, 1 g/L NH4Cl), 30-50 mM glucose, 2 mM MgSO4, 100 μM CaCl2), 18 μM FeSO4, and 50 μg/mL kanamycin. Seed cultures were grown from glycerol stocks in LB media supplemented with 50 μg/mL kanamycin, for 16 hours, pelleted and washed with M9 growth medium and subcultured into flasks to a final OD600 of 0.05. Cultures were incubated at 30° C. and 225 rpm for up to 2 days. Samples were taken at regular intervals to quantify cell density, glucose consumption, and muconate concentration.
Quantification of glucose and muconate concentrations using High Performance Liquid Chromatography (HPLC): To measure muconate concentration, culture samples collected at various time points were centrifuged either at 3,500 rpm for 10 min or 16,000 rpm for 1 min. […] The samples were analyzed for 10 min on a Fast Acid column (Phenomenex Rezex RFQ-Fast Acid H+(8%)) using 0.01 N H2SO4 at a flow rate of 0.8 mL/min as a mobile phase. […] Alternatively, the samples were analyzed for 40 min on a SUPELCOGEL H Column (SUPELCO) with 0.1% H2SO4 at 0.5 mL/min. […]

B1: H115W/V346A: PON1 version that combines the two mutations H115W/V346A (protein, UniProt P27169 2-355, looked up, variant H115W V346A)
Serum …: AKLIALTLLGMGLALFRNHQSSYQTRLNALREVQPVELPNCNLVKGIETGSEDLEILPNGLAFISSGLKYPGIKSFNPNSPGKILLMDLNEEDPTVLELGITGSKFDVSSFNPWGISTFTDEDNAMYLLVVNHPDAKSTVELFKFQEEEKSLLHLKTIRHKLLPNLNDIVAVGPEHFYGTNDHYFLDPYLQSWEMYLGLAWSYVVYYSPSEVRVVAEGFDFANGINISPDGKYVYIAELLAHKIHVYEKHANWTLTPLKSLDFNTLVDNISVDPETGDLWVGCHPNGMKIFFYDSENPPASEVLRIQNILTEEPKVTQVYAENGTVLQGSTVASVYKGKLLIGTAFHKALYCEL
As to B1, the “Raw whole cell fluorescence intensity, PXN (1.6 mM)” value with pNP sensor (exogenous paraoxon 1.6 mM) is 2410 ± 669. Further, in the series on pNP sensor (induced with exogenous pNP 200 μM), the “Raw whole cell fluorescence intensity, pNP (200 μM)” value came to 11484 ± 2032. In addition, the “Raw whole cell fluorescence intensity, UI” value with pNP sensor (uninduced, no pNP source) is reported as 248 ± 36.

B2: PcaR-G5: PcaR variant for a low sensitivity BKA sensor, SEQ ID NO: 26 (protein)
chain: MSDETLGNDSGNAEVARPASAAMAPPIVASPAKRIQAFTGDPDFMTSLARGLAVIQAFQERKRHLTIAQISHRTEIPRAAVRRCLHTLIKLGYATTDGRTYSLLPKVLTLGHAYLSSTPLAISAQPYLDRISDQLHEAANMATLEGDDILYIARSATVERLISVDLSVGGRMPAYCTSMGRILLAAMDDTSLREYLERADLKARTSRTLNDPESLFACIQQVRAQGWCVVDQELEQGVRAIAVPVYDASGQVLAALSVSTHVGRVTRSELEQRFLPILLAASRDLCHQLFG
modifications: PcaR-G5
As to B2, the “fluorescence response with BKA precursors, catechol and PCA” value (shortened to “fluorescence response”) with BKA was “showed dose dependent response”.

B3: PcaR-H6: PcaR variant for a low sensitivity BKA sensor, SEQ ID NO: 28 (protein)
chain: MSDETLGNDSGNAEVARPASAAMAPPIVASPAKRIQAFTGDPDFMTSLARGLAVIQAFQERKRHLTIAQISHRTEIPRAAVRRCLHTLIKLGYATTDGRTYSLLPKVLTLGHAYLSSTPLAISAQPYLDRISDQLHEAANMATLEGDDILYIARSATVERLISVDLSVGGRMPAYCTSMGRILLAAMDDTSLREYLERADLKARTSRTLNDPESLFACIQQVRAQGWCVVDQELEQGVRSIAVPVYDASGQVLAALSVSTHVGRVTRSELEQRFLPILLAASRDLCHQLFG
modifications: PcaR-H6
Regarding B3, in the series on BKA, the “fluorescence response” value was “showed dose dependent response”.

B4: PcaR-F6: PcaR variant for a low sensitivity BKA sensor, SEQ ID NO: 27 (protein)
chain: MSDETLGNDSGNAEVARPASAAMAPPIVASPAKRIQAFTGDPDFMTSLARGLAVIQAFQERKRHLTIAQISHRTEIPRAAVRRCLHTLIKLGYATTDGRTYSLLPKVLTLGHAYLSSTPLAISAQPYLDRISDQLHEAANMATLEGDDILYIARSATVERLISVDLSVGGRLPAYCTSMGRILLAAMDDTSLREYLERADLKARTSRTLNDPESLFACIQQVRAQGWCVVDQELEQGMRTIAVPVYDASGQVLAALSVSTHVGRVTRSELEQRFLPILLAASRDLCHQLFG
modifications: PcaR-F6
Take B4: the “fluorescence response” value with BKA was “showed dose dependent response”.

B5: UbiC_C21: E. coli UbiC variant with mutations M34V/I78V (protein, UniProt P26602 2-165, looked up, variant M34V I78V)
Chorismate pyruvate-lyase: SHPALTQLRALRYCKEIPALDPQLLDWLLLEDSVTKRFEQQGKTVSVTMIREGFVEQNEIPEELPLLPKESRYWLREVLLCADGEPWLAGRTVVPVSTLSGPELALQKLGKTPLGRYLFTSSTLTRDFIEIGRDAGLWGRRSRLRLSGKPLLLTELFLPASPLY
For B5, in series [1], the catalytic constant (kcat) came to 0.67 ± 0.06 s⁻¹ and the Km was 90.2 ± 7.8 µM. Also, the muconate yield increase with P. putida CJ200 is recorded as about 130%.

B6: UbiC_C22: E. coli UbiC variant with mutations E31Q/M34V (protein, UniProt P26602 2-165, looked up, variant E31Q M34V)
Chorismate pyruvate-lyase: SHPALTQLRALRYCKEIPALDPQLLDWLLLQDSVTKRFEQQGKTVSVTMIREGFVEQNEIPEELPLLPKESRYWLREILLCADGEPWLAGRTVVPVSTLSGPELALQKLGKTPLGRYLFTSSTLTRDFIEIGRDAGLWGRRSRLRLSGKPLLLTELFLPASPLY
With B6, in series [1], the kcat is 1.04 ± 0.09 s⁻¹ and the Km came out at 148 ± 9.4 µM. Further, in the series on P. putida CJ200, the muconate yield increase was about 130%.

B7: UbiC_C11: E. coli UbiC variant with mutations E31Q/I78V/L80V (protein, UniProt P26602 2-165, looked up, variant E31Q I78V L80V)
Chorismate pyruvate-lyase: SHPALTQLRALRYCKEIPALDPQLLDWLLLQDSMTKRFEQQGKTVSVTMIREGFVEQNEIPEELPLLPKESRYWLREVLVCADGEPWLAGRTVVPVSTLSGPELALQKLGKTPLGRYLFTSSTLTRDFIEIGRDAGLWGRRSRLRLSGKPLLLTELFLPASPLY
Take B7: in series [1], the kcat was 0.51 ± 0.04 s⁻¹ and the Km is 54.7 ± 3.4 µM.

What is called kcat is the maximal rate divided by the concentration of active sites. By Km is commonly meant the concentration of substrate that gives half-maximal velocity.
